Measured values: the supplement of paper PMC10126150
± gives the standard deviation of the averaged measurements.

Test system: ATP
Assay: switch fluorescence ratio, 500 uM ATP over buffer (Cy3 cluster intensity, sum of 5 cycles each) (fold (ratio)); higher = stronger signal-on switching upon ATP binding; sequences stand for … in TCGTCGGCAGCGTCAGATGTGTATAAGAGACAGTTTTTTTTTTTTTTTTTTTTTTTTT…TC
Details: aptamer strand: ATP DNA aptamer (quencher-CACCTGGGGGAGTATTGCGGAGGAAGG + anchor), 100 nM annealed; ATP concentration: 500 uM
Outline: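 For every switch-domain sequence, the fluorescence ratio is the mean of per-cluster values, each being summed target-cycle Cy3 intensity over summed buffer-cycle Cy3 intensity. Clusters outside 100-1000 RFU were excluded. On a modified Illumina MiSeq flow-cell, the Cy3-labelled switching-strand clusters were annealed to 100 nM quencher-labelled ATP aptamer, imaged in selection buffer and then after 15 min with 500 uM ATP at 22 °C. Five such cycles were run, with NaOH stripping and re-annealing between them.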
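Note: ATP exposure 15 min at 22 °C before imaging.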

| Sequence | switch fluorescence ratio |
| --- | --- |
| GACGACGGGG | 1.05 ± 0.028 |
| TTGGGGAAAT | 1.31 ± 0.68 |
| GAAAAAAAAA | 0.992 ± 0.023 |
| AGAAGTACGC | 1.17 ± 0.1 |
| AAAGCCGGTT | 0.9689 ± 0.004 |
| GGTGGGGCAG | 0.9643 ± 0.0041 |
| CGAGGGGGTG | 1.02 ± 0.055 |
| CGGTTATATG | 1.02 ± 0.015 |
| GGGTATAACG | 0.974 ± 0.035 |
| ACGTAAAAAG | 1.01 ± 0.065 |
| AAATTTTTAC | 1.02 ± 0.027 |
| GGGTTTCTCT | 0.994 ± 0.032 |
| CATGTGATTA | 1.007 ± 0.01 |
| CTGGGAAGTG | 0.978 ± 0.003 |
| GCGTTGTGAA | 0.9835 ± 0.0057 |
| TATGTACATG | 1 ± 0.026 |
| TGGCCCTTTT | 1.07 ± 0.13 |
| CTAGATTGGG | 1.015 ± 0.0043 |
| TTTGGTGGTC | 0.971 ± 0.022 |
| GTAAGGGATA | 0.988 ± 0.031 |
| GCCTGAGAGC | 0.9754 ± 0.0021 |
| GCAGTTTTAG | 0.999 ± 0.027 |
| CTTTACGGGC | 1.02 ± 0.038 |
| ACAGGAGGGG | 1.04 ± 0.018 |
| CTTAGGACGC | 1.22 ± 0.0055 |

| Sequence | switch fluorescence ratio |
| --- | --- |
| GTCGCGGTTG | 1.03 ± 0.0015 |
| GAACGTTTGC | 1.11 ± 0.017 |
| CGGTTTCTGG | 0.9856 ± 0.0053 |
| GCTATCGTGC | 0.975 ± 0.013 |
| GGCTGATACG | 1.04 ± 0.059 |
| TAAGGGACAC | 1.05 ± 0.017 |
| ATGGGCGGTA | 1.04 ± 0.052 |
| GGAAATCGGG | 0.989 ± 0.027 |
| TGATTGATAT | 1.01 ± 0.012 |
| TTTTTGGCCT | 1.05 ± 0.052 |
| AGTTTGGATA | 0.97 ± 0.028 |
| TTTTAACTCG | 1.01 ± 0.023 |
| TCGAATATGT | 0.986 ± 0.025 |
| TGAAGAGGGG | 0.994 ± 0.012 |
| AGCATTGGCT | 1.016 ± 0.0011 |
| GGGGGTTGCA | 0.965 ± 0.016 |
| ATATCCGACA | 1.054 ± 0.0056 |
| GAGACATTGG | 1 ± 0.062 |
| GCAAAAGGTT | 1.01 ± 0.022 |
| ATTGAACAT | 0.984 ± 0.015 |
| GGGGGTCG | 1.03 ± 0.081 |
| GGGGTGGCCA | 0.99 ± 0.0098 |
| GGTTTATGAC | 1.13 ± 0.27 |
| TTGGTTATGC | 0.998 ± 0.045 |
| ATTTTTATCC | 1.022 ± 0.0068 |

| Sequence | switch fluorescence ratio |
| --- | --- |
| GGCTGGGGCT | 0.973 ± 0.026 |
| TTGGCAGTG | 0.993 ± 0.019 |
| CTTCGTGCGA | 1.14 ± 0.023 |
| GAGAAATGTG | 1.03 ± 0.011 |
| TCGTGGTTTC | 0.9823 ± 0.0069 |
| TGGATGGGTA | 1.22 ± 0.33 |
| GAGGGGGACT | 1.13 ± 0.19 |
| GACTTTTTGG | 0.998 ± 0.027 |
| CAGGGGGTGC | 1.03 ± 0.072 |
| CGCGGCTGGG | 1 ± 0.026 |
| GAAATTGAGT | 1 ± 0.027 |
| TCTGGTTAGT | 1.01 ± 0.066 |
| TGAGGTGGTG | 1.01 ± 0.0074 |
| CGACTTGGAA | 1.02 ± 0.036 |
| TTCCGATGGA | 1.33 ± 0.26 |
| TTGGAATGGG | 1 ± 0.026 |
| TGATTTAGTT | 0.989 ± 0.02 |
| ATCGATGAGG | 0.991 ± 0.058 |
| TACGAATTTT | 1.02 ± 0.012 |
| AGGAGCGCGG | 1.027 ± 0.003 |
| CGTGTGGCGA | 1.06 ± 0.015 |
| TGACAAGTGG | 1.01 ± 0.015 |
| GCAACGTCAA | 1.07 ± 0.076 |
| GGGTGTACAA | 0.98 ± 0.019 |
| TTAGGTTTAA | 1.02 ± 0.021 |

| Sequence | switch fluorescence ratio |
| --- | --- |
| GGATAAAGAC | 1.37 ± 0.41 |
| TCGTTAAACT | 1.02 ± 0.011 |
| TGGGGAACGC | 1.01 ± 0.034 |
| GGGGGGCTTC | 0.975 ± 0.019 |
| CTTGTCGTTC | 1.01 ± 0.026 |
| TAATTTGTCA | 1.008 ± 0.0076 |
| CATAGGTACA | 1.089 ± 0.0035 |
| CTTCTTTTGG | 0.996 ± 0.032 |
| GGGTGGGCGC | 1.01 ± 0.058 |
| AGGTTTATGC | 0.977 ± 0.066 |
| GCAGGCTACA | 1.02 ± 0.019 |
| TTGCCAATCC | 1.04 ± 0.04 |
| GGGGCGGCTA | 0.984 ± 0.029 |
| GCGGTCATGG | 0.992 ± 0.046 |
| TTTAGGGTTG | 0.988 ± 0.022 |
| AATGGGGGGG | 0.998 ± 0.034 |
| GATGTGTTTC | 1.03 ± 0.06 |
| TTTTATGTAT | 1.06 ± 0.048 |
| ATTGCGAGGC | 1.04 ± 0.029 |
| TGGTGCCCAC | 1.01 ± 0.027 |
| AAGATGCGTA | 0.978 ± 0.016 |
| TTGCTAGCCT | 1.01 ± 0.021 |
| TTTCGTAGGT | 1.02 ± 0.022 |
| TGATATGTAA | 1.021 ± 0.0094 |
| GAGCAGGTTT | 1.6 ± 0.92 |

| Sequence | switch fluorescence ratio |
| --- | --- |
| AAGGCGGATA | 0.96 ± 0.013 |
| TGAGGGAATT | 1.01 ± 0.018 |
| TGTAATCCGC | 1.28 ± 0.021 |
| CGGTGTGTCT | 1.02 ± 0.019 |
| AATTATGTAA | 0.988 ± 0.036 |
| GGGCTGGGGG | 1.01 ± 0.057 |
| TTTTGGTCTT | 1 ± 0.028 |
| ATGTTTTTCG | 0.9718 ± 0.0029 |
| GGTTTGGTAA | 1.014 ± 0.0099 |
| TAGGCAGGGT | 1.56 ± 0.78 |
| AAGGTTTTTG | 1 ± 0.03 |
| AGAGGGGAGT | 1.021 ± 0.0016 |
| CACATGTTAT | 1.0197 ± 0.00089 |
| GGGGGGCCGA | 1.01 ± 0.03 |
| CTTTTATTTA | 0.99186 ± 0.00094 |
| TTGTGGGCAG | 1.03 ± 0.032 |
| CGAGACTAGT | 1.01 ± 0.063 |
| GCTTTAGTGG | 0.963 ± 0.012 |
| TGCTTTACGG | 1.009 ± 0.0082 |
| TGGTTCATCG | 0.97771 ± 0.00071 |
| TCAAATATTT | 0.979 ± 0.0025 |
| GTGATGGCAG | 0.9846 ± 0.0053 |
| GTTTAAAAAG | 0.9958 ± 0.0034 |
| AAGAGGGCAG | 0.992 ± 0.0081 |
| ACGGGACGGG | 1.02 ± 0.035 |

| Sequence | switch fluorescence ratio |
| --- | --- |
| AGGAAGCGGG | 1.0224 ± 0.00031 |
| GGATTTTGTG | 0.994 ± 0.021 |
| CGTTCATATG | 0.963 ± 0.023 |
| GGTAGTAGTG | 1.0054 ± 0.00082 |
| TTCGCGCTTT | 1 ± 0.036 |
| AGCTTTAAAA | 0.981 ± 0.025 |
| GGCCGGAATT | 1.17 ± 0.19 |
| GGTAATTTGA | 0.989 ± 0.024 |
| TTTATTTTG | 0.95563 ± 0.00051 |
| GTTAATAACA | 1.011 ± 0.0052 |
| CGTTTGATGC | 1.018 ± 0.0033 |
| CAATTTTCGG | 0.989 ± 0.022 |
| GAAATGTGAG | 0.9797 ± 0.0045 |
| GGGCTTAGTG | 0.993 ± 0.0066 |
| TCATTTTCTT | 0.9688 ± 0.0049 |
| AAAGTTTCAT | 0.991 ± 0.034 |
| TAGGTATGCG | 1.18 ± 0.037 |
| TTTTACTTTA | 1.06 ± 0.032 |
| ATATGTTAGT | 0.988 ± 0.011 |
| CAAATTGGAC | 1.03 ± 0.0071 |
| AATAGGAATT | 0.9708 ± 0.0059 |
| ATCAAATATC | 1.036 ± 0.0086 |
| TAAGTTTTAT | 0.984 ± 0.021 |
| AATAACTACC | 1.15 ± 0.032 |
| TTATAAGTAG | 1.01 ± 0.02 |

| Sequence | switch fluorescence ratio |
| --- | --- |
| GAAGGGAGGA | 1.03 ± 0.077 |
| TGTTTTCTTT | 0.987 ± 0.019 |
| ATTGTCGG | 0.972 ± 0.028 |
| TTTATGAATT | 1.03 ± 0.019 |
| GTGACTTTCT | 0.99 ± 0.017 |
| AAAAAATGGA | 1.01 ± 0.031 |
| CGTACATGT | 1.02 ± 0.024 |
| TCTCACATCG | 1.01 ± 0.024 |
| GATGAAACGT | 1.06 ± 0.045 |
| AAATAACGAG | 1 ± 0.036 |
| TCAGGGCTAG | 0.9837 ± 0.0093 |
| TCCGGATCGG | 1.03 ± 0.012 |
| AGCTGAGTCT | 1.02 ± 0.034 |
| CGCTGGGGAT | 1.04 ± 0.027 |
| AGACAAGTGG | 0.957 ± 0.026 |
| GGGGGAACTA | 0.989 ± 0.019 |
| TGCTGGGGAC | 0.992 ± 0.051 |
| AAAAAAGGGA | 0.995 ± 0.022 |
| TGACCGAAAC | 1.2 ± 0.051 |
| CTGATTGTAC | 1.08 ± 0.069 |
| AATTTGTGTT | 0.992 ± 0.01 |
| TGGAGCGGTT | 1.03 ± 0.032 |
| AAGGATATGG | 1.02 ± 0.016 |
| TGGGGCGTCG | 1 ± 0.037 |
| CGTGAGGGGG | 1.01 ± 0.012 |

| Sequence | switch fluorescence ratio |
| --- | --- |
| CATCTTTGAA | 1.05 ± 0.017 |
| TTGGCTTTGT | 0.985 ± 0.022 |
| TAGAGCTGCA | 1.02 ± 0.026 |
| AACGGCGCAT | 1.02 ± 0.052 |
| CGGGGGTAGA | 0.966 ± 0.042 |
| TGCGAAAGAT | 1.05 ± 0.086 |
| ATAAAAACCG | 1.01 ± 0.053 |
| TTTAATCTGG | 0.968 ± 0.021 |
| AGAAGAGGGG | 0.987 ± 0.044 |
| GGGGACCAAC | 1.03 ± 0.021 |
| ACGAGTTCCT | 0.989 ± 0.056 |
| GGGCTTTGGC | 1 ± 0.025 |
| CGGAATTTGG | 1.02 ± 0.041 |
| CACGGGGGGG | 1.02 ± 0.025 |
| GGGACTTTCT | 1.01 ± 0.0092 |
| AGACAGTTGG | 0.99 ± 0.025 |
| CATTAGTAGC | 1.02 ± 0.05 |
| TAGGTTCCGG | 0.993 ± 0.034 |
| ACAACCGGGG | 1.37 ± 0.029 |
| TACGGGTTCG | 0.99 ± 0.028 |
| AACCAGGGGG | 1.058 ± 0.0084 |
| TTTCAGTGGT | 0.986 ± 0.024 |
| AATGGTTTTT | 0.991 ± 0.031 |
| AAGAGGGGGC | 0.986 ± 0.045 |
| CAAGGTTGTT | 1 ± 0.011 |
